Assay results from paper PMC5751283, “A Split-Luciferase Reporter Recognizing GFP and mCherry Tags to Facilitate Studies of Protein–Protein Interactions” (International Journal of Molecular Sciences, 2017).

Biological target: the molecule itself
Test: split reporter (BiFC, NanoBiT); GFP- and/or mCherry-tagged targets expressed in Leishmania tarentolae extract (pairs co-expressed, self-associating proteins alone), serially diluted three-fold, mixed 1:1:1 with two split-nanoLuc fusions of anti-GFP or anti-mCherry nanobodies (SLN pairs GL/GS, LC/GS, CL/CS or LC/CFRS, also made in LTE); 10 min at 23 °C; buffer A (25 mM HEPES pH 7.4, 50 mM NaCl); background: …

B1: mCherry–SOX9 (natural protein, UniProt P48436 1-509, looked up)
chain: MNLLDPFMKMTDEQEKGLSGAPSPTMSEDSAGSPCPSGSGSDTENTRPQENTFPKGEPDLKKESEEDKFPVCIREAVSQVLKGYDWTLVPMPVRVNGSSKNKPHVKRPMNAFMVWAQAARRKLADQYPHLHNAELSKTLGKLWRLLNESEKRPFVEEAERLRVQHKKDHPDYKYQPRRRKSVKNGQAEAEEATEQTHISPNAIFKALQADSPHSSSGMSEVHSPGEHSGQSQGPPTPPTTPKTDVQPGKADLKREGRPLPEGGRQPPIDFRDVDIGELSSDVISNIETFDVNEFDQYLPPNGHPGVPATHGQVTYTGSYGISSTAATPASAGHVWMSKQQAPPPPPQQPPQAPPAPQAPPQPQAAPPQQPAAPPQQPQAHTLTTLSSEPGQSQRTHIKTEQLSPSHYSEQQQHSPQQIAYSPFNLPHYSPSYPPITRSQYDYTDHQNSSSYYSHAAGQGTGLYSTFTYMNPAQRPMYTPIADTSGVPSIPQTHSPQHWEQPVYTQLTRP
notes: SOX9; also called SOX9–mCherry; mCherry homodimer; source: Leishmania tarentolae cell-free extract (LTE), not purified
Question: Which signal-to-background ratio does the source give for B1 here?
Answer: 5
